{
  "source": "paper PMC12218921",
  "about": "“An adaptive peptide-binding site in ubiquitin receptor hRpn13 revealed by structural studies” (Nature Communications, 2025)",
  "binders": {"B1": {"name": "hRpn2 (940–953) (peptide)", "peptide": "QEPEPPEPFEYIDD", "notes": "source: synthetic peptide (GenScript Biotech; for the fluorescence polarization assay bought: New England Peptide)"}, "B2": {"name": "hRpn2 (944–953) (peptide)", "peptide": "PPEPFEYIDD", "notes": "source: bought: New England Peptide"}, "B3": {"name": "hRpn13 Pru (1–150) (domain or fragment, human)", "chain": "GPGSMTTSGALFPSLVPGSRGASNKYLVEFRAGKMSLKGTTVTPDKRKGLVYIQQTDDSLIHFCWKDRTSGNVEDDLIIFPDDCEFKRVPQCPSGRVYVLKFKAGSKRLFFWMQEPKTDQDEEHCRKVNEYLNNPPMPGALGASGSSGHELSAL", "notes": "four non-native residues (aG-bP-cG-dS) left at the N-terminus after PreScission cleavage of the purification tag; hRpn13 (ADRM1), human, residues 1-150 holding the Pru domain; 15N-labelled (M9 medium) for the NMR experiments, unlabelled (LB) for crystallography; S4-N20 are not seen in the electron density; also called hRpn13 (1–150); Pru-A; source: E. coli BL21(DE3) pLysS, purified (Talon resin, …)"}, "B4": {"name": "TAMRA-labeled hRpn2 (940–953) (peptide)", "peptide": "QEPEPPEPFEYIDD", "modifications": "also: TAMRA attached, position not given here", "notes": "also called TAMRA-hRpn2; source: bought: New England Peptide"}, "B5": {"name": "hRpn13_ΔMTT (domain or fragment, human)", "chain": "GSSGALFPSLVPGSRGASNKYLVEFRAGKMSLKGTTVTPDKRKGLVYIQQTDDSLIHFCWKDRTSGNVEDDLIIFPDDCEFKRVPQCPSGRVYVLKFKAGSKRLFFWMQEPKTDQDEEHCRKVNEYLNNPPMPGALGASGSSGHELSAL", "notes": "hRpn13 (ADRM1), human, hRpn13 (1-150) without M1-T3; 15N-labelled for NMR; also called hRpn13 Pru variant with ENT M1 – T3, aG, and bP deleted; source: E. coli BL21 (DE3), purified (glutathione sepharose, thrombin cleavage, Superdex 75); not shown: GST, N-terminal, cleaved"}, "B6": {"name": "EDGEGEE peptide (peptide)", "peptide": "EDGEGEE", "notes": "acidic peptide chosen by the authors; also called acidic peptide; source: synthetic peptide (GenScript)"}},
  "key": {"hRpn13_ΔMTT": {"molecular_target": "B5", "assay": "fluorescence polarisation; competition: unlabeled peptide at various concentrations preincubated with 80 nM hRpn13_ΔMTT, then 10 nM TAMRA-hRpn2 (940–953) added; PBS with 1 mM TCEP, room temperature; [Inhibitor] vs response (three parameters) fit; estimated EC50", "settings": "both partners purified"}, "[1]": {"molecular_target": "the molecule itself", "assay": "crystal structure; hRpn13 (1–150) at 560 μM in 20 mM HEPES pH 7.5, 100 mM NaCl, 1 mM TCEP; microbatch-under-oil at 4 °C with 0.1 M sodium acetate pH 4.6, 22% PEG3350; one molecule per asymmetric unit, ENT at the interface of Pru molecules of the lattice; 1.85 Å"}, "[2]": {"molecular_target": "B4", "assay": "fluorescence polarisation; hRpn13_ΔMTT titrated against TAMRA-hRpn2 (940–953); PBS with 1 mM TCEP, room temperature; [Agonist] vs response (three parameters) fit", "settings": "both partners purified"}, "K48-diUb^EDGEGEE": {"molecular_target": "T1, K48-diUb^EDGEGEE (human, UniProt P0CG48 1-76; P0CG48 1-76, K48R, G76 joined by an isopeptide bond to K48 of the other ubiquitin | K48 joined by an isopeptide bond to G76 of Ub-K48R)", "T1 construct": "Ub-K48R (distal, by the methods): ubiquitin, human; Ub-EDGEGEE (proximal, by the methods): ubiquitin, human; 6-residue linker added to the ubiquitin C-terminal end; Two ubiquitins joined covalently K48-G76; The results call the extended moiety distal, the methods call it proximal; also called K48-linked diubiquitin with Ub-EDGEGEE; source: made enzymatically (E1 from R&D Systems, E2-25K) from …", "assay": "NMR titration; 1H-15N HSQC of 0.1 mM 15N-labeled hRpn13_ΔMTT alone and with unlabeled ligand (peptides at varying molar ratios up to 20-fold excess; hRpn2 (940-953) or ubiquitin equimolar, alone or together with 20-fold EDGEGEE; K48-diUb at 4:1, 2:1 and 1:1 hRpn13 to diUb); NMR buffer (20 mM sodium phosphate pH 6.5, 50 mM NaCl, 1 mM TCEP, 10% D2O), 25 °C, 600 MHz", "settings": "both partners purified"}, "K48-diUb^ENT": {"molecular_target": "T2, K48-diUb^ENT (human, UniProt P0CG48 1-76; P0CG48 1-76, K48R, G76 joined by an isopeptide bond to K48 of the other ubiquitin | K48 joined by an isopeptide bond to G76 of Ub-K48R)", "T2 construct": "Ub-K48R (distal, by the methods): ubiquitin, human; Ub-ENT (proximal, by the methods): ubiquitin, human; 6-residue linker added to the ubiquitin C-terminal end; Two ubiquitins joined covalently K48-G76; The results call the extended moiety distal, the methods call it proximal; also called K48-linked diubiquitin with Ub-ENT; source: made enzymatically (E1 from R&D Systems, E2-25K) from ubiquitin …", "assay": "NMR titration; 1H-15N HSQC of 0.1 mM 15N-labeled hRpn13_ΔMTT alone and with unlabeled ligand (peptides at varying molar ratios up to 20-fold excess; hRpn2 (940-953) or ubiquitin equimolar, alone or together with 20-fold EDGEGEE; K48-diUb at 4:1, 2:1 and 1:1 hRpn13 to diUb); NMR buffer (20 mM sodium phosphate pH 6.5, 50 mM NaCl, 1 mM TCEP, 10% D2O), 25 °C, 600 MHz", "settings": "both partners purified"}, "K48-diUb^D77": {"molecular_target": "T3, K48-diUb^D77 (human, UniProt P0CG48 1-76; P0CG48 1-76, K48R, G76 joined by an isopeptide bond to K48 of the other ubiquitin | K48 joined by an isopeptide bond to G76 of Ub-K48R)", "T3 construct": "Ub-K48R (distal, by the methods): ubiquitin, human; Ub-D77 (proximal, by the methods): ubiquitin, human; additional aspartate at position 77 (Ub-D77); Two ubiquitins joined covalently K48-G76; The results call the extended moiety distal, the methods call it proximal; also called K48-linked diubiquitin; source: made enzymatically (E1 from R&D Systems, E2-25K) from ubiquitin proteins expressed in …", "assay": "NMR titration; 1H-15N HSQC of 0.1 mM 15N-labeled hRpn13_ΔMTT alone and with unlabeled ligand (peptides at varying molar ratios up to 20-fold excess; hRpn2 (940-953) or ubiquitin equimolar, alone or together with 20-fold EDGEGEE; K48-diUb at 4:1, 2:1 and 1:1 hRpn13 to diUb); NMR buffer (20 mM sodium phosphate pH 6.5, 50 mM NaCl, 1 mM TCEP, 10% D2O), 25 °C, 600 MHz", "settings": "both partners purified"}, "ubiquitin": {"molecular_target": "T4, ubiquitin (human, UniProt P0CG48 1-76)", "T4 construct": "ubiquitin, human, the 76-residue cut product of the polyubiquitin precursor; source: E. coli Rosetta 2(DE3), untagged, purified (cation exchange, SEC)", "assay": "NMR titration; 1H-15N HSQC of 0.1 mM 15N-labeled hRpn13_ΔMTT alone and with unlabeled ligand (peptides at varying molar ratios up to 20-fold excess; hRpn2 (940-953) or ubiquitin equimolar, alone or together with 20-fold EDGEGEE; K48-diUb at 4:1, 2:1 and 1:1 hRpn13 to diUb); NMR buffer (20 mM sodium phosphate pH 6.5, 50 mM NaCl, 1 mM TCEP, 10% D2O), 25 °C, 600 MHz", "settings": "both partners purified"}},
  "note": "No end group written: not given here.",
  "data": [
    {"binder": "B1", "values": [
      {"measurement": "EC50", "setting": "hRpn13_ΔMTT", "result": "0.32 ± 0.02", "unit": "µM"}
    ]},
    {"binder": "B2", "values": [
      {"measurement": "EC50", "setting": "hRpn13_ΔMTT", "result": "87 ± 6", "unit": "µM"}
    ]},
    {"binder": "B3", "values": [
      {"measurement": "binding result", "setting": "[1]", "result": "binds"}
    ]},
    {"binder": "B4", "values": [
      {"measurement": "binding result", "setting": "hRpn13_ΔMTT", "result": "binds"}
    ]},
    {"binder": "B5", "values": [
      {"measurement": "EC50", "setting": "[2]", "result": "0.043 ± 0.007", "unit": "µM"},
      {"measurement": "binding result", "setting": "K48-diUb^EDGEGEE", "result": "binds"},
      {"measurement": "binding result", "setting": "K48-diUb^ENT", "result": "binds"},
      {"measurement": "binding result", "setting": "K48-diUb^D77", "result": "binds"},
      {"measurement": "binding result", "setting": "ubiquitin", "result": "binds"}
    ]},
    {"binder": "B6", "values": [
      {"measurement": "EC50", "setting": "hRpn13_ΔMTT", "result": "637 ± 51", "unit": "µM"}
    ]}
  ]
}
